Measurements published in PMC314469, “Protein Interaction Networks by Proteome Peptide Scanning” (PLoS Biology, 2004).

T1: Yhr016c SH3 (YSC84_YEAST), P32793
T1 chain: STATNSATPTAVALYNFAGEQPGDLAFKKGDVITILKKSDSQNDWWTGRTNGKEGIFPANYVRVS

T2: Yfr024 SH3 (LSB3_YEAST), P43603
T2 chain: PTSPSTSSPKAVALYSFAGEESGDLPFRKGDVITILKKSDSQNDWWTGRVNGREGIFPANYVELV

T3: Boi1 SH3 (BOI1_YEAST), P38041
T3 chain: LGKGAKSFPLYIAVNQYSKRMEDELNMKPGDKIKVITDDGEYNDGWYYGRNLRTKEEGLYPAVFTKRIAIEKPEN

T4: Rvs167 SH3 (RV167_YEAST), P39743
T4 chain: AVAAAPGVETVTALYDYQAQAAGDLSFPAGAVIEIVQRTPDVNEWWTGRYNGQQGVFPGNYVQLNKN

T5: Boi2 SH3 (BOI2_YEAST), P39969
T5 chain: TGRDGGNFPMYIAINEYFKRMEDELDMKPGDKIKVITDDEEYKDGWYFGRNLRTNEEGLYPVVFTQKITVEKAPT


Key:
Experiment in all cases: SPOT array
[1] = biological target: T1, Yhr016c SH3 (YSC84_YEAST), P32793
[2] = biological target: T2, Yfr024 SH3 (LSB3_YEAST), P43603
[3] = biological target: T3, Boi1 SH3 (BOI1_YEAST), P38041
[4] = biological target: T4, Rvs167 SH3 (RV167_YEAST), P39743
[5] = biological target: T5, Boi2 SH3 (BOI2_YEAST), P39969

Row | normalised SPOT signal, Boehringer light units (BLU); mean over the file's lines of this peptide [1] | normalised SPOT signal, Boehringer light units (BLU); mean over the file's lines of this peptide [2] | normalised SPOT signal, Boehringer light units (BLU); mean over the file's lines of this peptide [3] | normalised SPOT signal, Boehringer light units (BLU); mean over the file's lines of this peptide [4] | normalised SPOT signal, Boehringer light units (BLU); mean over the file's lines of this peptide [5] | Binder
1 | 63.1 | 86 | 95.1 | 23.6 | 33.5 | IIGPDEPEKSLILK [YMR066W 43-56]
2 | 122 | 170 | 95.5 | 61.8 | 57.1 | IFNPQNPLKTGFEP [YMR087W 156-169]
3 | 1780 | 13700 | 8730 | 245 | 99.2 | ILTPDFPERRRLMK [YLR233C 283-296]
4 | 238 | 209 | 30.1 | 65.5 | 36 | IFFPNEPIRFVYPY [YPR072W 415-428]
5 | 51.4 | 149 | 119 | 28.2 | 26.4 | IEQPFGPPKITKDG [YLR259C 61-74]
6 | 198 | 391 | 105 | 22.8 | 38.1 | IKYPGSPQRSSSFS [YMR036C 139-152]
7 | 115 | 116 | 118 | 32.7 | 46.9 | ILYPDIPGKNYFLT [YOL087C 29-42]

Second part, the binder before the results:

Row | Binder | normalised SPOT signal, Boehringer light units (BLU); mean over the file's lines of this peptide [1] | normalised SPOT signal, Boehringer light units (BLU); mean over the file's lines of this peptide [2] | normalised SPOT signal, Boehringer light units (BLU); mean over the file's lines of this peptide [3] | normalised SPOT signal, Boehringer light units (BLU); mean over the file's lines of this peptide [4] | normalised SPOT signal, Boehringer light units (BLU); mean over the file's lines of this peptide [5]
8 | IIFPYDPLKLGTHA [YBR163W 509-522] | 55.6 | 17.2 | 22.3 | 82.3 | 12.7
9 | ILKPDIPLRNMLLR [YGL224C 138-151] | 2420 | 12900 | 14700 | 1640 | 60
10 | IEVPQSPTKNRVKV [YIL150C 61-74] | 201 | 176 | 130 | 27.2 | 19.2
11 | IINPDTPHRRIFNQ [YBL019W 264-277] | 530 | 1670 | 314 | 157 | 71.9
12 | ILLPPLPERAYIMD [YGL144C 459-472] | 50600 | 26200 | 12.7 | 14900 | 38.9
13 | IIIPPIPSKHSLLK [YDR425W 171-184] | 204 | 3190 | 92.9 | 22.6 | 50
14 | IFDPQDPYRRAQQF [YHR150W 496-509] | 316 | 59.9 | 53.2 | 52.4 | 51.8
15 | IFGPSFPFRSHIDV [YDL224C 170-183] | 6610 | 9630 | 138 | 391 | 31.8
16 | IIFPTSPTKLTFSN [YDR130C 112-125] | 0 | 314 | 45.5 | 84.2 | 13.9
17 | IFGPFGPMKEVKIL [YDR432W 144-157] | 260 | 195 | 63.3 | 56.3 | 23.4
18 | ILSPGYPNKSFNNK [YGL073W 653-666] | 282 | 293 | 92.5 | 100 | 68.5
19 | IFPPLNPARTSLNS [YDR312W 172-185] | 829 | 5080 | 72.9 | 134 | 31.3
20 | IIKPYLPFKISKWL [YJR054W 69-82] | 169 | 878 | 37.9 | 68.5 | 39.8
21 | IMPPPKPFRHGLDS [YBR108W 517-530] | 35500 | 30900 | 258 | 1540 | 222
22 | IHSPRIPSKDEFIA [YER091C 704-717] | 187 | 224 | 88.8 | 73.2 | 42
